Results reported in publication PMC8047080, “Engineering Cofactor Specificity of a Thermostable Phosphite Dehydrogenase for a Highly Efficient and Robust NADPH Regeneration System” (Frontiers in Bioengineering and Biotechnology, 2021).

How the values were obtained:
[1] = molecular target: T1, shikimate dehydrogenase (SDH) (Thermus thermophilus, UniProt Q5SJF8); assay: HPLC ([…] nm) of shikimic acid formed in coupled reaction with RsPtxD; type: biochemical; conditions: NADPH regenerated from 0.1 mM NADP by RsPtxD HARRA mutant; 20 mM phosphite; 100 mM HEPES pH 8.0; 45°C
T1 construct: gene aroE; pET-11a in E. coli Rosetta 2 (DE3) pLysS; heat treatment at 80°C and HiTrap SP purification
T1 sequence (Q5SJF8 1-263): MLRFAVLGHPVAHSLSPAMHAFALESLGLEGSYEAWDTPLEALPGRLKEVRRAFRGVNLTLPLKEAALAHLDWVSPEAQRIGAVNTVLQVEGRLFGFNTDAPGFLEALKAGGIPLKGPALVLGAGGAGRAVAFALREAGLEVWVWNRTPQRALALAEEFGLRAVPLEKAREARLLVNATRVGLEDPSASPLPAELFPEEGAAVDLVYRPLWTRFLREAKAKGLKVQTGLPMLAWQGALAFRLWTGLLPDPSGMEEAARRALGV

[2] = tested on: NC(=O)c1ccc[n+]([C@@H]2O[C@H](COP(=O)(O)OP(=O)(O)OC[C@H]3O[C@@H](n4cnc5c(N)ncnc54)[C@H](O)[C@@H]3O)[C@@H](O)[C@H]2O)c1; assay: purified protein; conditions: 1 mM phosphite, 100 mM MOPS pH 7.3
[3] = tested on: NC(=O)c1ccc[n+]([C@@H]2O[C@H](COP(=O)(O)OP(=O)(O)OC[C@H]3O[C@@H](n4cnc5c(N)ncnc54)[C@H](OP(=O)(O)O)[C@@H]3O)[C@@H](O)[C@H]2O)c1; assay: purified protein; conditions: 1 mM phosphite, 100 mM MOPS pH 7.3
O=[PH](O)O = assay: purified protein; conditions: 1 mM NADP as co-substrate, 100 mM MOPS pH 7.3
purified protein [4] = substrate: NC(=O)c1ccc[n+]([C@@H]2O[C@H](COP(=O)(O)OP(=O)(O)OC[C@H]3O[C@@H](n4cnc5c(N)ncnc54)[C@H](O)[C@@H]3O)[C@@H](O)[C@H]2O)c1; assay: purified protein; conditions: 1 mM phosphite, 100 mM MOPS pH 7.3; remark: listed apart in the source
purified protein [5] = substrate: NC(=O)c1ccc[n+]([C@@H]2O[C@H](COP(=O)(O)OP(=O)(O)OC[C@H]3O[C@@H](n4cnc5c(N)ncnc54)[C@H](OP(=O)(O)O)[C@@H]3O)[C@@H](O)[C@H]2O)c1; assay: purified protein; conditions: 1 mM phosphite, 100 mM MOPS pH 7.3; remark: listed apart in the source
purified protein [6] = substrate: O=[PH](O)O; assay: purified protein; conditions: 1 mM NAD as co-substrate, 100 mM MOPS pH 7.3

NC(=O)C1=CN([C@@H]2O[C@H](COP(=O)(O)OP(=O)(O)OC[C@H]3O[C@@H](n4cnc5c(N)ncnc54)[C@H](OP(=O)(O)O)[C@@H]3O)[C@@H](O)[C@H]2O)C=CC1 [NADPH]
HPLC (230 nm) of shikimic acid formed in coupled reaction with RsPtxD [1]: SDH catalyzes the reduction of 3-DHS to SA

RsPtxD (Ralstonia sp. 4506; C174H/D175A/I177K/P176R/P178A)
Km [2]: 130 ± 10.6 µM | kcat [2]: 154 ± 7.5 min^–1 | kcat/Km [2]: 20000 M⁻¹ s⁻¹ | Km [3]: 4.4 ± 0.9 µM | kcat [3]: 129 ± 12.1 min^–1 | kcat/Km [3]: 493000 M⁻¹ s⁻¹ | Km (O=[PH](O)O): 27 ± 9.0 µM

RsPtxD (Ralstonia sp. 4506; C174H/D175A/I177R/P176R/P178A)
Km [2]: 112 ± 1.3 µM | kcat [2]: 148 ± 14.8 min^–1 | kcat/Km [2]: 21700 M⁻¹ s⁻¹ | Km [3]: 2.9 ± 0.5 µM | kcat [3]: 128 ± 16.6 min^–1 | kcat/Km [3]: 735000 M⁻¹ s⁻¹ | Km (O=[PH](O)O): 38 ± 8.5 µM

RsPtxD (Ralstonia sp. 4506; C174H/D175A/P176R)
Km [2]: 154 ± 14.7 µM | kcat [2]: 155 ± 2.3 min^–1 | kcat/Km [2]: 16700 M⁻¹ s⁻¹ | Km [3]: 24 ± 5.2 µM | kcat [3]: 118 ± 6.8 min^–1 | kcat/Km [3]: 81700 M⁻¹ s⁻¹

RsPtxD (Ralstonia sp. 4506; D175A/P176R)
Km [2]: 412 ± 21.5 µM | kcat [2]: 115 ± 13.0 min^–1 | kcat/Km [2]: 5000 M⁻¹ s⁻¹ | Km [3]: 56 ± 5.1 µM | kcat [3]: 91.1 ± 3.9 min^–1 | kcat/Km [3]: 26700 M⁻¹ s⁻¹

B1: RsPtxD (Ralstonia sp. 4506) (protein)
chain: MKPKVVLTHWVHPEIIELLSASADVIPNTTRETLPRSEVIARAKDADALMAFMPDSIDSAFLEECPKLRVIGAALKGYDNFDVNACTRHGVWLTIVPDLLTIPTAELTIGLLLGLTRHMLEGDRQIRSGHFQGWRPTLYGSGLTGKTLGIIGMGAVGRAIAQRLAGFEMNLLYCDPIPLNAEQEKAWHVQRVTLDELLEKCDYVVPMVPMAAETLHLIDATALAKMKTGSYLINACRGSVVDENAVIAALASGKLAGYAADVFEMEEWIRADRPQAIPKALLDNTAQTFFTPHLGSAVKEVRLEIERQAAMNIIQALAGEKPMGAINQPYPGVKAA
Km (purified protein [4]): 7.7 ± 2.3 µM | kcat (purified protein [4]): 127 ± 16.8 min^–1 | kcat/Km (purified protein [4]): 277000 M⁻¹ s⁻¹ | Km (purified protein [5]): 418 ± 38.7 µM | kcat (purified protein [5]): 16.0 ± 6.3 min^–1 | Km (purified protein [6]): 37.0 ± 7.0 µM
